± gives the standard deviation of the averaged measurements.
System: Saccharomyces cerevisiae
Assay: protein stability index of tFT-peptide fusion (C-terminal peptide) (PSI (0-1 scale)); higher = more stable (slower turnover)
Conditions: genetic background: wild type; temperature: 30 C
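Also: PSI is a weighted mean of sequencing reads over stability bins, variants kept only with over 10 reads, mCherry proximal and sfGFP distal, peptide attached via GGGS linker.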

## PLSPLAPPPAPS
  protein stability index: 0.661 ± 0.075

## RGEPPSAKEIAR
  protein stability index: 0.727 ± 0.045

## RAKSTFRVHSHM
  protein stability index: 0.6645 ± 0.005

## GSYRSSPFKDPK
  protein stability index: 0.686 ± 0.037

## FFSFYPVYPLSA
  protein stability index: 0.527 ± 0.021

## EATCSPCPTRVV
  protein stability index: 0.621 ± 0.012

## PPLCTTPTPRRV
  protein stability index: 0.735 ± 0.041

## LLFPALPPPPVR
  protein stability index: 0.674 ± 0.028

## IIYKPEKMRPKS
  protein stability index: 0.7146 ± 0.0068

## PPPPPPPLRFIF
  protein stability index: 0.618 ± 0.035

## PPLPPPLPHRPL
  protein stability index: 0.716 ± 0.078

## LIKVGRRREGTG
  protein stability index: 0.691 ± 0.059

## GPRVILALLSRR
  protein stability index: 0.6842 ± 0.0067

## VVSDGRSYGLLK
  protein stability index: 0.73703 ± 0.00014

## SPQKCKSAPSSC
  protein stability index: 0.6746 ± 0.0031

## GIGRGLGGLKSG
  protein stability index: 0.617 ± 0.026

## APPRPCFSALTL
  protein stability index: 0.726 ± 0.076

## AVACGGASGCGC
  protein stability index: 0.707 ± 0.071

## SRCPLLNGIGFR
  protein stability index: 0.6471 ± 0.0025

## GRGLGGWARGWW
  protein stability index: 0.69008 ± 0.00035

## GKSESATLMVTV
  protein stability index: 0.697 ± 0.18

## GRQEISVGGRRM
  protein stability index: 0.7007 ± 0.00071

## WYGPKLVGGSIV
  protein stability index: 0.722 ± 0.12

## LHETKRQKKRKR
  protein stability index: 0.7187 ± 0.0062

## SSPPPSAHPLPS
  protein stability index: 0.6933 ± 0.0055

## PPLFPPPPPLPR
  protein stability index: 0.718 ± 0.027

## IRCHSERKSWMY
  protein stability index: 0.7 ± 0.065

## TYRYWGTLRYYD
  protein stability index: 0.761 ± 0.07

## PFYVEAVEKPEH
  protein stability index: 0.855 ± 0.035

## YHMNSSLLCLLW
  protein stability index: 0.631 ± 0.032

## PPSPPVPRFSLL
  protein stability index: 0.69503 ± 0.00011

## ACKVIMSVGRRL
  protein stability index: 0.644 ± 0.064

## VFRFAPILHSHR
  protein stability index: 0.585 ± 0.019

## SSPTRARLFFPH
  protein stability index: 0.659 ± 0.039

## EETTSNLGLKVN
  protein stability index: 0.5617 ± 0.0014

## GTLARFLTHFNP
  protein stability index: 0.666 ± 0.048

## LISGGLSWGDCW
  protein stability index: 0.743 ± 0.0099

## RFFSGPCCGRSP
  protein stability index: 0.6995 ± 0.002

## WFGSPRCVGGQL
  protein stability index: 0.703 ± 0.03

## GVEAGMGRTLWL
  protein stability index: 0.792 ± 0.099

## CSSLPSRPLLPH
  protein stability index: 0.7209 ± 0.0062

## VLTSRCGLLFVL
  protein stability index: 0.62 ± 0.044

## GGRGWAGRGGSG
  protein stability index: 0.707 ± 0.052

## VGQGVPEGGGQW
  protein stability index: 0.726 ± 0.018

## WLRVLFPSSPGD
  protein stability index: 0.607 ± 0.04

## THPPPPPPACSV
  protein stability index: 0.632 ± 0.037

## GLSWSSGGLMVF
  protein stability index: 0.615 ± 0.037

## ISPFPSFPPTLS
  protein stability index: 0.734 ± 0.064

## PLPTLPFPCSPS
  protein stability index: 0.706 ± 0.016

## PLPSVLFCLTRW
  protein stability index: 0.665 ± 0.02

## SSLERVHVCPLE
  protein stability index: 0.64 ± 0.079

## VNFGWWVVGSRS
  protein stability index: 0.685 ± 0.062

## SIRQDSLMVWGG
  protein stability index: 0.666 ± 0.097

## SPVSLLSFRLLL
  protein stability index: 0.573 ± 0.022

## VVWGAWGGWGCW
  protein stability index: 0.726 ± 0.056

## RSTTRSTLSLHV
  protein stability index: 0.701 ± 0.021

## LASPPIIVFSQM
  protein stability index: 0.556 ± 0.016

## GGGGGGGGRGWG
  protein stability index: 0.63411 ± 1.7e-05

## VFLNRGSHQQET
  protein stability index: 0.691 ± 0.056

## TPTPPPSFLHGS
  protein stability index: 0.663 ± 0.046

## MHGVSSGSSLVN
  protein stability index: 0.63 ± 0.038

## ASAWLGLCGWVL
  protein stability index: 0.674 ± 0.018

## IDLWGNGRCVEL
  protein stability index: 0.701 ± 0.048

## DESRVYLSIALL
  protein stability index: 0.623 ± 0.035

## RYCIRDNKSNRN
  protein stability index: 0.705 ± 0.051

## SGRAALARVSPT
  protein stability index: 0.694 ± 0.028

## SSPPSARSPPPP
  protein stability index: 0.717 ± 0.076

## SSSVFFFLRRFR
  protein stability index: 0.698 ± 0.025

## LAPASPTHPHPP
  protein stability index: 0.679 ± 0.0087

## DPRVLPPPPRLP
  protein stability index: 0.637 ± 0.02

## SFSLPPSSSPPT
  protein stability index: 0.725 ± 0.1

## PPPAPSPLPLFP
  protein stability index: 0.7 ± 0.045

## WLESHVSRGLTT
  protein stability index: 0.64 ± 0.021

## WSQGAIDRLDLS
  protein stability index: 0.641 ± 0.13

## LLVTPAPRSTHF
  protein stability index: 0.648 ± 0.064

## HLSSPPSLLPPP
  protein stability index: 0.657 ± 0.05

## GRVRIFDCVVRL
  protein stability index: 0.753 ± 0.011

## KTNWKKKERKKA
  protein stability index: 0.675 ± 0.027

## DSFPAGVLVQSK
  protein stability index: 0.664 ± 0.017

## HTRIGDGSRLLA
  protein stability index: 0.72666 ± 0.00065

## HRWSRGIDATGV
  protein stability index: 0.665 ± 0.083

## SQRRGLLGRFRI
  protein stability index: 0.695 ± 0.011

## SRALSPRAPFGN
  protein stability index: 0.76 ± 0.15

## APRSPSLRSRHP
  protein stability index: 0.743 ± 0.018

## GLSYPPLQFYYH
  protein stability index: 0.689 ± 0.012

## EAHGQQESRCEQ
  protein stability index: 0.7 ± 0.055

## TNMTRWRIRVRD
  protein stability index: 0.676 ± 0.053

## LVGSSYGRTDML
  protein stability index: 0.715 ± 0.016

## LSDDRTLFWISG
  protein stability index: 0.728 ± 0.13

## TGRRLVLGDRCM
  protein stability index: 0.72 ± 0.011

## FHDVVSKKHSLK
  protein stability index: 0.705 ± 0.032

## VRPPRLSSCLLS
  protein stability index: 0.656 ± 0.024

## GECASVFSSGFF
  protein stability index: 0.72 ± 0.17

## MGKNDSITPELA
  protein stability index: 0.712 ± 0.029

## SGQVFADGSYAD
  protein stability index: 0.699 ± 0.015

## SSGISEGFERGG
  protein stability index: 0.581 ± 0.014

## DVHGETRGYGIQ
  protein stability index: 0.665 ± 0.019

## REGRRSVWGVSW
  protein stability index: 0.685 ± 0.023

## LTLTQAPVRTDF
  protein stability index: 0.677 ± 0.018

## DDQYVGRYYNKT
  protein stability index: 0.676 ± 0.019

## KVKREEKRKRED
  protein stability index: 0.712 ± 0.033

Source: the supplement of paper PMC10724198
